In this experiment the target is ACP-HA labeled via ACP with Cy3. As to the kind of experiment: mock pull-down on magnetic beads from an equimolar mixture of Cy3-ACP-HA and Cy3-ACP-CaM-PCP; SDS-PAGE and in-gel fluorescence scanning; reference is ACP-CaM-PCP.

In US20100075394A1 one finds enrichment of ACP-HA over ACP-CaM-PCP data, which are given here for one substance.

With “primary-chloride-derivatized 12CA5 antibody immobilized via covalin on magnetic beads displaying BG”, the enrichment of ACP-HA over ACP-CaM-PCP amounted to 80 fold.
